These results are taken from patent publication US20160046944, “APTAMER TO IL-17 AND USE THEREOF” (THE UNIVERSITY OF TOKYO, published 2016).

Changes are numbered by the printed parent chain.

Common to all, as to conditions: chain copies: 2
Data set [1] concerns the target T1, IL-17 (Homo sapiens, UniProt Q16552 Q16552:24-155).
T1 sequence: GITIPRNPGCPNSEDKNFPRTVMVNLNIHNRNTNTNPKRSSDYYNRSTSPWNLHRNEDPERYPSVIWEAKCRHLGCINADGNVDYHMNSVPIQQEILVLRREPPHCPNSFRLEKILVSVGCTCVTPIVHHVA
Put plainly: cell_activity; NIH3T3 IL-6 release. How it is done:
First, human IL-17 and the aptamer produced in Example 1-2 were pre-incubated at 37° C. for 30 min, and added to NIH3T3 cell (ATCC, CRL1658) together with mouse TNFα (2 ng/mL). Then, after incubation for 24 hr, the culture supernatant was collected, and the production amount of IL-6 was measured by ELISA method described below. The IL-17 inhibitory action of each aptamer was determined from the production amount of IL-6. For comparison with the aptamer of the present invention, a conventionally-known aptamer (aptamer No. 50) against IL-17 was used.
ELISA method for verifying IL-17 inhibitory action of aptamer: A microtiter plate for ELISA was coated with rat anti-mouse IL-6 antibody (BD Biosciences, 2 μg/mL; 100 μL/well) diluted with PBS, and incubated at 4° C. overnight. The next day, the microtiter plate was washed 3 times with PBS/0.05% Tween 20, and applied blocking with PBS/1% BSA (200 μL/well) at room temperature for 2 hr. Then, the plate was washed 3 times with PBS/0.05% Tween 20. Recombinant mouse IL-6 (BD Biosciences; 100 μL/well) serially diluted with PBS/1% BSA/0.05% Tween 20 or culture supernatants (100 μL/well) were added to the plate. After incubation at room temperature for 2 hr, the plate was washed 3 times with PBS/0.05% Tween 20. Then, 100 μL/well of biotin conjugated rat anti-mouse IL-6 antibody (BD Biosciences) was added to the plate at final dilution of 1/500, and the mixture was reacted at room temperature for 1 hr. After washing 3 times with PBS/0.05% Tween 20, 100 μL/well of alkaline phosphatase conjugated streptavidin was added at final dilution of 1/1000. After 30 min at room temperature, the plate was again washed 4 times with PBS/0.05% Tween 20, and a substrate (1-Step PNPP; Thermo Fisher Scientific Inc; 100 μL/well) was added. After 15 min, aqueous sodium hydroxide solution (2N: 50 μL/well) was added to stop the reaction, and the plate was read on a microtiter reader (Bio-Rad) by using a 405 nm filter.

In the next data set the target is T2, IL-17 (IL-17A) (Homo sapiens, UniProt Q16552 Q16552:24-155).
T2 sequence: T1 sequence
Put plainly: cell_activity; IL-6 release, NIH3T3. How it is done:
(§1) First, human IL-17 and the aptamer produced in Example 1-1 were pre-incubated at 37° C. for 30 min, and added to NIH3T3 cell (ATCC, CRL1658) together with mouse TNFα (2 ng/mL). Then, after incubation for 24 hr, the culture supernatant was collected, and the amount of IL-6 was measured by BD Cytometric Bead Array (BD Biosciences). The IL-17 inhibitory action of each aptamer was determined from the amount of IL-6. For comparison with the aptamer of the present invention, a conventionally-known aptamer (aptamer No. 50) against IL-17 was used.

Data set [2] concerns the target T1, IL-17. As to the kind of experiment: SPR; IL-17R-Fc on chip. The procedure: Whether aptamers shown by aptamer Nos. 1-49 inhibit the binding of IL-17 and IL-17 receptor was evaluated by the surface plasmon resonance method.
For the measurement, BIAcore2000 manufactured by BIAcore was used. […] As an analyte, IL-17 (100 or 150 nM) and an aptamer (50 or 100 nM) shown by aptamer No. 1-49 were mixed, maintained for 15 min and after that the mixture was flown.
On the technique in general: Surface plasmon resonance follows binding to a sensor surface in real time, without labels.

Data set [3] deals with T1, IL-17. Put plainly: cell_activity; NIH3T3 IL-6 release. The procedure:
as §1
This is another data set of the same source.

B1: aptamer No. 61 (mixed)
mixed: GGGUAGCCGGAGGAGTCAGTAAUCGGUACCC
modifications: 2'-OMe (M), 2'-F (F), PS (S) as marked; uppercase DNA [2'-OMe: 1,2,3,4,7,8,10,11,13,14,19,21,22,23,24,25,26,28; 2'-F: 17,18,27; PS: 6,15]
As for B1, in the data set with IL-17 [1], the half-inhibitory concentration (IC50) – broadly, the point on the concentration scale where inhibition reaches its midpoint – amounted to 3.41 nM.

B2: aptamer No. 47 (mixed)
mixed: B1 mixed
modifications: g(M)g(M)g(M)u(M)Agc(M)c(M)Gg(M)a(F)gg(M)a(M)gTc(F)a(F)gTaau(M)c(M)g(M)g(M)u(F)a(M)CCC
B2 came in with a 50% inhibitory concentration (IC50) with IL-17 (IL-17A) of 0.59 nM.

B3: aptamer No. 46 (mixed)
mixed: B1 mixed
modifications: g(M)g(M)g(M)u(M)Ag(S)c(M)c(M)Gg(M)Agg(M)a(M)gTc(F)agTaau(M)c(M)g(M)g(M)u(F)a(M)CCC
Take B3: in the data set with IL-17 (IL-17A), inhibition was half-maximal at 1.13 nM (IC50).

B4: aptamer No. 2 (mixed)
RNA: B1 mixed with T16U, T20U
modifications: 2'-OMe (M), 2'-F (F), PS (S) as marked; uppercase DNA [2'-OMe at 1-3,10; 2'-F at 4,7,8,16,17,20,23,24,27; PS at 6; DNA at 9,29-31]
Consider B4, for which the binding signal with IL-17 [2] was 32 % IL-17/IL-17R binding remaining. Besides, the half-inhibitory concentration (IC50) with IL-17 [3] was found to be 0.68 nM.

B5: aptamer No. 49 (mixed)
mixed: B1 mixed
modifications: g(M)g(M)g(M)u(M)Agc(M)c(M)Gg(M)Agg(M)a(M)gTc(F)agTaau(M)c(M)g(M)g(M)u(F)a(M)CCC (one (M) misprinted as (PI))
Regarding B5, the IC50 with IL-17 (IL-17A) stood at 0.65 nM.

B6: aptamer No. 37 (mixed)
mixed: B1 mixed with U27T
modifications: g(M)g(M)g(M)u(M)Agc(M)c(M)Gg(M)Agg(M)a(M)gTc(F)agTaAu(M)c(M)g(M)g(M)Ta(M)c(M)c(M)c(M) (one (M) misprinted as (NI))
B6 displayed a concentration for half-maximal inhibition (IC50) with IL-17 (IL-17A) of 1.64 nM.

B7: aptamer No. 27 (mixed)
mixed: B1 mixed with U27T
modifications: g(M)g(M)g(M)u(M)Ag(S)c(M)c(M)Gg(M)Agg(M)a(M)gTc(F)agTa(M)Au(M)c(M)g(M)g(M)Ta(M)c(M)c(M)c(M)
Molecule B7 gave a half-inhibitory concentration (IC50) with IL-17 (IL-17A) of 2.45 nM.

B8: aptamer No. 23 (mixed)
mixed: B1 mixed with U27T
modifications: 2'-OMe (M), 2'-F (F), PS (S) as marked; uppercase DNA [2'-OMe: 1-4,7,8,10,13,14,23-26,29-31; 2'-F: 17; PS: 6]
Take B8: the binding signal with IL-17 [2] is 13.4 % IL-17/IL-17R binding remaining. In addition, in the data set with IL-17 [3], it took 1.34 nM to reach half-maximal inhibition (IC50).

B9: aptamer No. 4 (mixed)
RNA: B1 mixed with T16U, T20U
modifications: 2'-OMe (M), 2'-F (F), PS (S) as marked; uppercase DNA [1,2,3,4,6,7,8,10,11,13,14,16,17,18,20,21,22,23,24,25,26,27,28]
On to B9, for which the binding signal with IL-17 [2] is 26.8 % IL-17/IL-17R binding remaining. The molecule further had a half-inhibitory concentration (IC50) with IL-17 [3] of 2.78 nM.

B10: aptamer No. 41 (mixed)
mixed: B1 mixed with U27T
modifications: g(M)g(M)g(M)u(M)Agc(M)c(M)Gg(M)agg(M)a(M)gTc(F)agTaau(M)c(M)g(M)g(M)Ta(M)c(M)c(M)c(M)
B10 registered a concentration for half-maximal inhibition (IC50) in the data set with IL-17 (IL-17A) of 0.4 nM.

Regarding GGGUAGCCGGAGGAGTCAGTAAUCGGUACCC (mixed, g(M)g(M)g(M)u(M)Agc(M)c(M)Gg(M)agg(M)a(M)gTc(F)agTaau(M)c(M)g(M)g(M)u(F)a(M)CCC) [aptamer No. 48], the concentration for half-maximal inhibition (IC50) in the data set with IL-17 (IL-17A) stood at 0.3 nM.

B11: aptamer No. 28 (mixed)
mixed: B1 mixed with U27T
modifications: g(M)g(M)g(M)u(M)Agc(M)c(M)Gg(M)Agg(M)a(M)gTc(F)agTaau(M)c(M)g(M)g(M)Ta(M)c(M)c(M)c(M)
In the data set with IL-17 (IL-17A), B11 came in with an IC50 of 2.11 nM.

B12: aptamer No. 38 (mixed)
mixed: B1 mixed with U27T
modifications: g(M)g(M)g(M)u(M)Agc(M)c(M)Gg(M)Agg(M)a(M)gTc(F)agTa(M)au(M)c(M)g(M)g(M)Ta(M)c(M)c(M)c(M)
For B12, inhibition with IL-17 (IL-17A) was half-maximal at 0.31 nM (IC50).

B13: aptamer No. 25 (mixed)
mixed: B1 mixed with U27T
modifications: 2'-OMe (M), 2'-F (F) as marked; uppercase DNA [2'-OMe: 1-4,7,8,10,13,14,21,23-26,29-31; 2'-F: 17]
Take B13: the binding signal with IL-17 [2] is 11.7 % IL-17/IL-17R binding remaining. The molecule further returned an IC50 in the data set with IL-17 [3] of 1.64 nM.

B14: aptamer No. 57 (mixed)
mixed: B1 mixed
modifications: 2'-OMe (M), 2'-F (F), PS (S) as marked; uppercase DNA [2'-OMe: 1,2,3,4,7,8,10,13,14,19,21,22,23,24,25,26,28; 2'-F: 11,17,18,27; PS: 6,15]
Turning to B14, it took 2.36 nM to reach half-maximal inhibition with IL-17 [1] (IC50).

B15: aptamer No. 24 (mixed)
mixed: B1 mixed with U27T
modifications: 2'-OMe (M), 2'-F (F) as marked; uppercase DNA [2'-OMe: 1-4,7,8,10,13,14,23-26,29-31; 2'-F: 17]
On to B15, for which the binding signal with IL-17 [2] was 15.2 % IL-17/IL-17R binding remaining. This molecule came in with an IC50 with IL-17 [3] of 1.77 nM.

B16: aptamer No. 35 (mixed)
mixed: B1 mixed with U27T
modifications: g(M)g(M)g(M)u(M)Agc(M)c(M)Gg(M)Agg(M)a(M)gTc(F)AgTa(M)Au(M)c(M)g(M)g(M)Ta(M)c(M)c(M)c(M)
In turn, B16 displayed a 50% inhibitory concentration (IC50) with IL-17 (IL-17A) of 2.47 nM.

B17: aptamer No. 40 (mixed)
mixed: B1 mixed with U27T
modifications: g(M)g(M)g(M)u(M)Agc(M)c(M)Gg(M)Agg(M)a(M)gTc(F)AgTa(M)au(M)c(M)g(M)g(M)Ta(M)c(M)c(M)c(M)
For the molecule B17, the 50% inhibitory concentration (IC50) in the data set with IL-17 (IL-17A) stood at 3.75 nM.

B18: aptamer No. 39 (mixed)
mixed: B1 mixed with U27T
modifications: g(M)g(M)g(M)u(M)Agc(M)c(M)Gg(M)Agg(M)a(M)gTc(F)AgTaa(M)u(M)c(M)g(M)g(M)Ta(M)c(M)c(M)c(M)
In turn, B18 showed an IC50 with IL-17 (IL-17A) of 3.91 nM.

B19: aptamer No. 45 (mixed)
mixed: B1 mixed
modifications: g(M)g(M)g(M)u(M)Ag(S)c(M)c(M)Gg(M)agg(M)a(M)gTc(F)agTaau(M)c(M)g(M)g(M)u(F)a(M)CCC
B19: half-maximal inhibition in the data set with IL-17 (IL-17A) (IC50) required 0.76 nM.
